Series [1] concerns norovirus GI.7 VLP (VP1) (Norovirus GI.7). Description: filter binding. The conditions noted are these: FRA: 1 nM 32P-aptamer, 0-1500 nM VLP, 60 min, each aptamer's original selection buffer (M1, M6-2, SMV19, SMV21: PBS pH 7.4; others in Table S1, not in material).
Series [2] deals with norovirus GII.3 VLP (VP1) (Norovirus GII.3). Nature of the series: filter binding. The conditions noted are these: FRA: 1 nM 32P-aptamer, 0-1500 nM VLP, 60 min, each aptamer's original selection buffer (M1, M6-2, SMV19, SMV21: PBS pH 7.4; others in Table S1, not in material).
In series [3] the test system is norovirus GII.4 Sydney VLP (VP1) (Norovirus GII.4 Sydney). Description: filter binding. The settings on record: FRA: 1 nM 32P-aptamer, 0-1500 nM VLP, 60 min, each aptamer's original selection buffer (M1, M6-2, SMV19, SMV21: PBS pH 7.4; others in Table S1, not in material).
Series [4] has as its system norovirus GII.4 New Orleans VLP (VP1) (Norovirus GII.4 New Orleans). Description: filter binding. The settings on record: FRA: 1 nM 32P-aptamer, 0-1500 nM VLP, 60 min, each aptamer's original selection buffer (M1, M6-2, SMV19, SMV21: PBS pH 7.4; others in Table S1, not in material).
Series [5] deals with norovirus GII.2 VLP (VP1) (Norovirus GII.2). The settings on record: FRA: 1 nM 32P-aptamer, 0-1500 nM VLP, 60 min, each aptamer's original selection buffer (M1, M6-2, SMV19, SMV21: PBS pH 7.4; others in Table S1, not in material); cited from earlier work.
In series [6] the test system is norovirus P-domain (Norovirus GII.4). The conditions noted are these: FRA: 1 nM 32P-aptamer, 0-1500 nM VLP, 60 min, each aptamer's original selection buffer (M1, M6-2, SMV19, SMV21: PBS pH 7.4; others in Table S1, not in material); cited from earlier work.
Series [7] shares this test system. Nature of the series: filter binding. The settings on record: FRA: 1 nM 32P-aptamer, 0-1500 nM VLP, 60 min, each aptamer's original selection buffer (M1, M6-2, SMV19, SMV21: PBS pH 7.4; others in Table S1, not in material).

Take “GTCTGTAGTAGGGAGGATGGTCCGGGGCCCCGAGACGACGTTATCAGGC [Beier]”: the Kd in series [1] was 63 nM; in series [2], 115 nM; in series [3], 71 nM; in series [4], 105 nM.

For “CCATGTTTTGTAGGTGTAATAGGTCATGTTAGGGTTTCTG [SMV21]”, the Kd is 101 nM in series [5], 464 nM in series [2], 1250 nM in series [3] and 1780 nM in series [4].

On to “GCTAGCGAATTCCGTACGAAGGGCGAATTCCACATTGGGCTGCAGCCCGGGGGATCC [AG3]”, for which the Kd in series [3] worked out at 313 nM; in series [4], 1030 nM.

In the case of “TGTTTATGGGGATAAACGTATCTAATTCGTGTACTAATCA [M1]”, the Kd came out at 388 nM in series [3] and 963 nM in series [4].

As to “GAAATTGGGTTCGGGTTTGGGTTGGGATTACTTAGCGATG [Buf-2]”, the Kd in series [6] was 17 nM; in series [2] it was 465 nM; in series [3] it was 241 nM; in series [4], 351 nM. For the same sequence, in series [7], the binding signal was found to be 100%.

With “CACCAGTGTGTTGAGGTTTGAGCACACTGATAGAGTGTCA [SMV19]”, the dissociation constant Kd in series [5] is 191 nM; in series [4], 9340 nM.

As for “TGGGAAGAGGTCCGGTAAATGCAGGGTCAGCCCGGAGAG [M6-2]”, the Kd was 1130 nM in series [3] and 928 nM in series [4].

Values taken from publication PMC8396345.
